Experiment: yeast display, Sf9 membrane polyspecificity reagent, FACS + sequencing; frameworks hold sequencing errors
Procedure, shortened: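 Nanobodies came from a synthetic yeast display library in Saccharomyces cerevisiae BJ5465, induced with galactose for 36–48 hours and stained for 1 hour at 4 °C with 10% biotinylated, detergent-solubilized Sf9 membrane reagent. Cells were enriched on streptavidin microbeads and then FACS-sorted, with low and high (top ~1%) gates set on anti-HA fluorescence for expression and streptavidin fluorescence for reagent binding. Each polyreactivity label reflects the gate a clone came from. Genes were amplified by colony PCR, sequenced by MiSeq 2 × 250 and filtered by CDR length.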

Sequence | polyreactivity (PSR sort gate)
QVQLVESGGGLVQAGGSLRLSCAASGSTFTYYAMGWYRQAPGKERELVAAISRRGGSTYYADSVKGRFTISRDNAKNTVYLQMNSLKPEDTAVYYCNVVIYSYGINGRYDYWGQGTQVTVSS | high polyreactivity
QVQLVESGGGLVQAGGSLRLSCAASGSTFTYYAMGWYRQAPGKERELVAAITSRGGITYYADSVKGRFTISRDNAKNTVYLQMNSLKPEDTAVYYCNAYSQRYGYYYWGQGTQVTVSS | high polyreactivity
QVQLVESGGGLVQAGGSLRLSCAASGSTFTYYAMGWYRQAPGKERELVAAITWSGVSTYYADSVKGRFTISRDNAKNTVYLQMNSLKPEDTAVYYCANGYSYGWWGGFGYWGQGTQVTVSS | high polyreactivity
QVQLVESGGGLVQAGGSLRLSCAASGSTFTYYAMGWYRQSPGKERELVAAISWRGGSTYYADSVKGRFTISRDNAKNTVYLQMNSLKPEDNAVYYCAASRTFYRAVTQTGSPMDYWGQGTQVTVSS | high polyreactivity
QVQLVESGGGLVQAGGSLRLSCAASGSTFVANAMGWYRQAPGKERELVAAIDYDDGGTYYADSVKGRFTISRDNAKNTVYLQMNSLKPEDTAVYYCAADYGDIGAVLHYPVELGYWGQGTQVTVSS | low polyreactivity
QVQLVESGGGLVQAGGSLRLSCAASGSTFVANTMGWYRQAPGKERELVATIRRSGGSTYYADSVKGRFTISRDNAKNTVYLQMNSLKPEDTAVYYCAKDSRWPSYRGMDYWGQGTQVTVSS | low polyreactivity
QVQLVESGGGLVQAGGSLRLSCAASGSTFVAYAMGSYRQAPGKERELVAAISASGVRTYYADSVKGRFTISRDNAKNTVYLQMNSLKPEDTAVYYCAATVFRKYRYGYWGQGTQVTVSS | high polyreactivity
QVQLVESGGGLVQAGGSLRLSCAASGSTFVDNAMGWYRQAPGKEREFVAAIDWSGGSTFYADSVKGRFTISRDNAKNTVYLQMNSLKPEDTAVYYCNADSYPQGDYWGQGSQVTVSS | low polyreactivity
QVQLVESGGGLVQAGGSLRLSCAASGSTFVDNAMGWYRQAPGKERELVAAIRDGSGGSTRYADSVKGRFTISRDNAKNTVYLQMNSLKPEDTAVYYCAADGYITVNYLRYDYWGQGTQVTVSS | low polyreactivity
QVQLVESGGGLVQAGGSLRLSCAASGSTFVDNAMGWYRQAPGKERELVAAISTRGGTTYYADSVKGRFTISRDNAKNTVYLQMKSLKAEDTAVYYCAAEIFTSVWWRWVDGDYWGQGTQVTVSS | high polyreactivity
QVQLVESGGGLVQAGGSLRLSCAASGSTFVDNAMGWYRQAPGKERELVADISSGGSTYYADSVKGRFTISRDNAKNTVYLQMNSLKPEDTAVYYCNAESFYWWHSYDYWGQGTQVTVSS | high polyreactivity
QVQLVESGGGLVQAGGSLRLSCAASGSTFVDNAMGWYRQAPGKERELVASITYRGGSTYYADSVKGRFTISRDNAKNTVYLQMNSLKPEDTAVYYCAKGHYFKYDYWGQGTQVTVSS | low polyreactivity
QVQLVESGGGLVQAGGSLRLSCAASGSTFVDNDMGWYRQAPGKERELVAAIDQSGGSTSYADSVKGRFTISRDNAKNTVYLQMNSLKPEDTAVYYCATPSYTTAYVEGDYWGQGTQVTVSS | low polyreactivity
QVQLVESGGGLVQAGGSLRLSCAASGSTFVENAMGWYRQAPGKERELVAAISSSGDSTFYADSVKGRFTISRDNAKNTVYLKMNSLKPEDTAVYYCAADRRINYDGLDMDYWGQGTQVTVSS | low polyreactivity
QVQLVESGGGLVQAGGSLRLSCAASGSTFVFNAMGWYRPAPGKERELVAAISSTGSTYYADSVKGRFTISRDNAKNTVYLQMNSLKPEDTAVYYCAAPYGFSYKGATYDSWGQGTQVTVSS | high polyreactivity
QVQLVESGGGLVQAGGSLRLSCAASGSTFVGNAMGWYRQAPGKERELVATIRYSDGSTYYADSVKGRFTISRDNAKNTVYLQMNSLKPEDTAVYYCATRVKQKGPYRYSARYFYTYNYWGQGTQVTVSS | high polyreactivity
QVQLVESGGGLVQAGGSLRLSCAASGSTFVGYAMGWYRQAPGKERELVAAITSRGGRTYYADSVKGRFTISRDNAKNTVYLQMNSLKPEDTAVYYCNAKRPRIGVTRYDYWGQGTQVTVSS | high polyreactivity
QVQLVESGGGLVQAGGSLRLSCAASGSTFVGYAMGWYRQAPGKERELVADIDSIGGSTYYADSVKGRFTISRDNAKNTVYLQMNSLKPEDTAVDYCAARRFDTALVLYDYWGQGTQVTVSS | low polyreactivity
QVQLVESGGGLVQAGGSLRLSCAASGSTFVGYARGWYRQEPGNETELVAAISGSGTSTYYADSVKGRFTISLDNAKNTVYLQMNSLKPEDTAVYYCKADPIFVYSSYNYWGQGTQVTVSS | low polyreactivity
QVQLVESGGGLVQAGGSLRLSCAASGSTFVHYAMGWYRQAPGKERELVAAINDGGSTHYADSVKGRFTISRDNAKNTVYLQMNSLKPEDTAVYYCAAEYVWYRYPDYWGAYDYWGQGTQVTVSS | low polyreactivity
QVQLVESGGGLVQAGGSLRLSCAASGSTFVIYAMGWYRQAPGKERELVAAIRRRGGSTYYADSVKGRFTISRDNAKNTVYLQMNSLKPEDSAVYYCATAGQGAFWGQGTQVTVSS | high polyreactivity
QVQLVESGGGLVQAGGSLRLSCAASGSTFVIYAMGWYRQAPGKERELVAAITFSGGRTYYADSVKGRFTISRDNAKNTVYLQMNSLKPEDTAVYYCNARHRNLAEYDYWGQGTQVTVSS | low polyreactivity

Sequence | polyreactivity (PSR sort gate)
QVQLVESGGGLVQAGGSLRLSCAASGSTFVKNVMGWYRQAPGKERELVAGITRGGSTYYADSVKGRFTISRDNAKNTVYLQMNSLKPEDTAVYYCNRVRYPSYDYWGQGTQVTVSS | high polyreactivity
QVQLVESGGGLVQAGGSLRLSCAASGSTFVKSAMGLYRQAPGKERELVAAINWSGGNTYYADSVKGRFKISRYNAKNTVYLQMNSLKPEETAVYYCNADAYRSDFDYWGQGTQVTVSS | high polyreactivity
QVQLVESGGGLVQAGGSLRLSCAASGSTFVLNAMGWYRQAPGKERELVAAITGSGSTKYADSVKGLFTISRDNAKNTVYLQMNSLKPEDTAVYYCATAAVYPIPFGYWGQGTQVTVSS | low polyreactivity
QVQLVESGGGLVQAGGSLRLSCAASGSTFVLYAMGWYRQAPGKERELVATISSGGSTYYADSVKGRFTISRDNAKNTVYLQMNSLKPEDTAVYYCAASYSRFVDWIGDPGYDYWGQGTQVTVSS | low polyreactivity
QVQLVESGGGLVQAGGSLRLSCAASGSTFVNNAMGWYRQAPGKERELVASITQSGGSTFYADSVKGRFTISRDNAKNTVYLQMNSLKPEDTAVYYWGQGTQVTVSS | low polyreactivity
QVQLVESGGGLVQAGGSLRLSCAASGSTFVPYAMGWYRQAPGKERELVAAINIGGRTNYADSVKGRFTISRDNAKNTVYLQMNSLKPEDTAVYYCAAEWGYYARSQYYYWGQGTQVTVSS | low polyreactivity
QVQLVESGGGLVQAGGSLRLSCAASGSTFVPYTMGWYRQAPGKERELVAAISGSGGTDYADSVKGRFTISRDNAKITVYLQLNSLKPEDTAVYYCGTDGLDFWFIYDYWGQGTQVTVSS | low polyreactivity
QVQLVESGGGLVQAGGSLRLSCAASGSTFVPYTMGWYRQAPGKERELVAVITSGGSTNYADSVKGRFTISLDNAKNTVYLQMNSLKPEDTAVYYCDARRRGRKERGEDYWGQGTQVTVSS | high polyreactivity
QVQLVESGGGLVQAGGSLRLSCAASGSTFVQYAMGWYRQAPGKERELVAAIRGRGDSTYYADSVKGRFTISRDNAKNTVYLQMNSLKPEDTAVYYCAARGQGSRGMYYWGQGTQVTVSS | low polyreactivity
QVQLVESGGGLVQAGGSLRLSCAASGSTFVRNAMGWYRQAPGKDRELVAAIRWRSGSTYYADSVKGRFTISRDNAKNTVYLQMNSLKPEDTAVYYCAKAFSRTTYRYDYWGQGTQVTVSS | high polyreactivity
QVQLVESGGGLVQAGGSLRLSCAASGSTFVRNAMGWYRQAPGKERELVAAIRWRSGSTYYADSVKGRFTISRDNAKNTVYFQMNSLKPEDTAVYYCAVKGLGKMNYWGQGTQVTVSS | high polyreactivity
QVQLVESGGGLVQAGGSLRLSCAASGSTFVRNAMGWYRQAPGKERELVAAISWSGGRTYYADSVKGRFTISRDNAKNTVYLQMNSLKPEDTAVYYCAARGYAGVDYDYWGQGTQVTVSS | high polyreactivity
QVQLVESGGGLVQAGGSLRLSCAASGSTFVRNAMGWYRQAPGKERELVAAITRGGRTYYADSVKGRFTISRDNAKNTVYLQLNSLKPEVTAVYYCAKPSSPSLGGVSDRNYWGQGTQVTVSS | low polyreactivity
QVQLVESGGGLVQAGGSLRLSCAASGSTFVRNDKGWYRQAPGTEREFVAAINGDGRTYYADSVKGRFTISRDNEKNTVYLQMNSLKPEDTAVYYCAADWKSSRSYSYEMDYWGQGTQVTVSS | low polyreactivity
QVQLVESGGGLVQAGGSLRLSCAASGSTFVRNGMGWYRKAPGKERELVAAITRGGSTYYADSVKGRFTISRDNAKNTVYLQMNSLKPEDTAVYYSAKRYRGGYYYPYNYWGLGTQVTVSS | high polyreactivity
QVQLVESGGGLVQAGGSLRLSCAASGSTFVRNVMGWYRQAPGKERELVARISWSGTGTYYADSVKGRFTISRDNAKNTVYLQMNSLKPEDTAVYYCAARSTVYISSDYWGQGTQVTVSS | low polyreactivity
QVQLVESGGGLVQAGGSLRLSCAASGSTFVRYAMGWYRQAPGKERELVASISSSGSTYYADSVKGRFTISRDNAKNTVYLQMNSLKPEDTAVYYCAKQYGGRYGYWGQGTQVTLSS | low polyreactivity
QVQLVESGGGLVQAGGSLRLSCAASGSTFVRYAMGWYRQAPGKERELVATISSRGGRTYYADSVKGRFTISRDNAKNTVYLQMNSLKPEDTAVYYCAADRRAAVPFGYGYWGQGTQVTVSS | high polyreactivity
QVQLVESGGGLVQAGGSLRLSCAASGSTFVSNAMGGYRQAPGKERELVAAISSSGGRTSYADSVKGRFTISRDNAKNTVYLQMNSLKPEDTAVYYCAARFKSVDYVQYYYWGQGTQVTVSS | low polyreactivity
QVQLVESGGGLVQAGGSLRLSCAASGSTFVSNAMGWYRPAPGKERELVAAINGSGGITYYADSVKGRFTISRDNAKNTVYLQMNSLKPEDTAVYYCAAEYDGPSTWVDYYYHYGYWGQGTQVTVSS | low polyreactivity
QVQLVESGGGLVQAGGSLRLSCAASGSTFVSNVMGWYRQAPGKERELVAAITRGGSTKYADSVKGRFTISRDNAKNSVYLQMNSLKPEDTAVYYCAKRLYTRPGWYDYWGQGTQVTVSS | high polyreactivity

Source: the nanobody polyreactivity screen of Harvey et al. (2022)
